Values of other authors as cited in publication PMC3447994.

Target: IgG Fc Fc (Homo sapiens) [IgG part: P01857]

Chain of FcγRIIIa (P08637 17-254): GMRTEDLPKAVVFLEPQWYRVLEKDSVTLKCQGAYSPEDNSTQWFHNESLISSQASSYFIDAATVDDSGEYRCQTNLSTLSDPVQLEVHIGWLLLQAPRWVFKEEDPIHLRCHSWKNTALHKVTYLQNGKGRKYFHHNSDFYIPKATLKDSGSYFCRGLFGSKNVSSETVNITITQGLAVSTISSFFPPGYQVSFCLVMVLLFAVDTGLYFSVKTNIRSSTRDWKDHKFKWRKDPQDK

- Kd: 2000 nM
Substance: FcγRIIIa (from UniProt P08637)
